From the nanobody polyreactivity screen of Harvey et al. (2022) come the findings set out here.

The data set in a line: yeast display, Sf9 membrane polyspecificity reagent, FACS + sequencing; frameworks hold sequencing errors. A digest of the protocol:
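Galactose induction of a Saccharomyces cerevisiae BJ5465 synthetic nanobody display library ran 36–48 hours. The cells were then stained for 1 hour at 4 °C with 10% biotinylated, detergent-solubilized Sf9 membrane reagent, pulled down on streptavidin microbeads and FACS-sorted into low and high (top ~1%) gates on expression and reagent-binding fluorescence. Labels for polyreactivity follow the gate of origin.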
Consider “QVQLVESGGGLVQAGGSLRLSCAAYGLTFLSNAMGWYRPAPGKEREFVAAITKSGGRTYYADSVKGRFTISRDNAKNTVYFQMNSLKPEDTSVYYCAASGTSPRSTWYNSWGQGTQVTVSS”, for which the “polyreactivity (PSR sort gate)” value is on record as “high polyreactivity”. To “QVQLVESGGGLVQAGGSLRLSCAAYGNAMGWYRQAPGKERELVASINRSGGRTYYADSVKGRFTISRDNAKNTVYLQMNSLKPEDTAVYYCAARPHYDSDYWGQGTQVTVSS” belongs “low polyreactivity”.

On to “QVQLVESGGGLVQAGGSLRLSCAAYGNTFEHYAKGWYRQAPVKERELVAAISNSGGSTYYADSVKGRFTLSRDNAKNTVYLQMNSLKPEDTAVYYCNARGRASATVRLGRPDPFGDWGQGTQVTVSS”, for which the “polyreactivity (PSR sort gate)” value is given as “high polyreactivity”. As for “QVQLVESGGGLVQAGGSLRLSCAAYGRIFIGYTMGWYRQAPGNERELVAVISYRGGRTYYADSVKGRFTISRDNAKNTVYLQMNSLKPEDTAVYYCAAYRPGVISGFDYWGQGTQVTVSS”, the “polyreactivity (PSR sort gate)” value was “high polyreactivity”. To “QVQLVESGGGLVQAGGSLRLSCAAYGRIFNDYTMGWYRQAPGKERELVADITNRDTSTSYADSVKGRFIISRDNANNTVYLQMYILKPDDTAVYYCNAQQVIVVYRPGDYWGQGTQVTVSS” belongs “low polyreactivity”. Turning to “QVQLVESGGGLVQAGGSLRLSCAAYGRIFSAYVMGWYRQAPGKERELVAAISSTGSTYYADSAKGRFTISRDNAKNTVYLQMNSLKPEDTAVYYCAKRFFQQGYYYWGQGTQVTVSS”, the “polyreactivity (PSR sort gate)” value is “low polyreactivity”.

As for “QVQLVESGGGLVQAGGSLRLSCAAYGRIFTSYVMGWYRQAPGKERELVAGINSGRRTNYADSVKGRFTISRDNAKNTVYLQMNSLKPEDTAVYYCAKAGYWYKAHYYWGQGTQVTVSS”, the “polyreactivity (PSR sort gate)” value is “high polyreactivity”. The same measure for “QVQLVESGGGLVQAGGSLRLSCAAYGRIFYRNVMGWYRQAPGKERELVAAITYRTGSTYYADSVKGRFTISRDNAKNTVYLQMNSLKPEDTAVYYCNVVPRNGQTWGYEYDYWGQGTQVTVSS”: “high polyreactivity”; for “QVQLVESGGGLVQAGGSLRLSCAAYGSIIGVNAMGWYRPAPGKERELVAAISSTGGSTYYADSVKGRFTISRDNAKNTVYLQMNSLKPEDTAVYYCNTDYSKSIGDGYAGFDYWGQGTQVTVSS”: “low polyreactivity”.

“QVQLVESGGGLVQAGGSLRLSCAAYGSIISYTMGWYRQAPGKERELVAAITSGRITYYADSVKGRFTISRDNAKNTVSLQMNRLKQEDTAVYYCNNDVGFTRPLYYWGQGTQVTVSS”: the “polyreactivity (PSR sort gate)” value is “low polyreactivity”. On to “QVQLVESGGGLVQAGGSLRLSCAAYGSILLRYAMGWYRQAPGKERELVAAIRTIGASTYYADSVKGRFTISRDNAKNTVYLQMNSLKPEDTAVYYCNGYLAEVLQLGKCRLYDYWGQSTQVTVSS”, for which the “polyreactivity (PSR sort gate)” value was “low polyreactivity”.

“QVQLVESGGGLVQAGGSLRLSCAAYGSILRTYAMGWYRQAPGKERELVAAISSSGGSTYYADSVKGRFTISRDNAKNTVYLQMNSLKPEDTAVYYCAARYRYYYTRYDYWGQGTQVTVSS”: the “polyreactivity (PSR sort gate)” value is given as “high polyreactivity”. To “QVQLVESGGGLVQAGGSLRLSCAAYGSLFDSNAMGWYRQAPRKERELVAAITVSGTSTYYADSVNGRFTISRDNEKNTVYLQMNSLKPEYTEVYYCAAAQEYLTDHDYWGQGTQVTVSS” belongs “low polyreactivity”; to “QVQLVESGGGLVQAGGSLRLSCAAYGSNFVFNAMGWYRQAPGKERELVAAISNGDGTNYADSVKGRFTISRDNAKNTVYFQINSLKPEDTAVYYCAAVWTTQIVIEYDYWGQGSQVTVSS”, “low polyreactivity”. Turning to “QVQLVESGGGLVQAGGSLRLSCAAYGSSFNHYSMGWYRQAPGKERELVAAISWNGGSTYYADSVKGRFTISRDNAKNTVYLQMNSLKPEDTAVYYCNALVTTTPRYDYWGQGTQVTVSS”, the “polyreactivity (PSR sort gate)” value is “high polyreactivity”. For the sequence “QVQLVESGGGLVQAGGSLRLSCAAYGSTFASYSMGWYRQAPGKERELVADISKSGTRTYYADSVKGRFTISRDNAKNTVYLQMNSLKPEDTAVYYCATGQYLRTSRFYYWGHGTQVTVSS”, the “polyreactivity (PSR sort gate)” value was “high polyreactivity”. On to “QVQLVESGGGLVQAGGSLRLSCAAYGSTFEYYVMGWYRQAPGKERELVAAISGSGGGTYYADSVKGRFTISRDNAKNTVSLQMNSLKPEDTAVYYCAAVATLEKYDYWGQGNQVTVSS”, for which the “polyreactivity (PSR sort gate)” value is reported as “low polyreactivity”. Take “QVQLVESGGGLVQAGGSLRLSCAAYGSTFGHYAMGWDRQAPGKERELVAAISSSGGSTYYADSVKGRFTISRDNAKNTVYLQMNSLKPEDTAVYYCAARYYHYSYAFGYWGQGTQVTVSS”: the “polyreactivity (PSR sort gate)” value is “high polyreactivity”. The same measure for “QVQLVESGGGLVQAGGSLRLSCAAYGSTFRYNPLGWYRQAPGKETELVAANTSGGGTNSADSVKGRFTISRDNAKNTVYLQMNSLKPEDTAVYYCAAPWGLGSELLKRDYWGQGTQVTVSS”: “low polyreactivity”; for “QVQLVESGGGLVQAGGSLRLSCAAYGSTFYANAMGWYRQAPGKERELVAAISSGGSTYYADSVKGRFTISRYNAKNTVYLQMNSLKPEDTAVYYCAKPFYSYRYGFGYWGQGTQVTVSS”: “low polyreactivity”. In the case of “QVQLVESGGGLVQAGGSLRLSCAAYGSTVSSNAMGWYRQAPGKERELVAGISSSDVGTYYADSVKGRFTISRDYANNTVYLEMNSLKPDDTAVYYCNADHTGQFPSKLFPLGDNYWGQGTQVTVSS”, the “polyreactivity (PSR sort gate)” value is on record as “low polyreactivity”. To “QVQLVESGGGLVQAGGSLRLSCAAYGYTLYHNAMGWYRQAPGKERELVAAITSSGGRTYYADSVKGRFTISRDNAKNTVYLQMNRLKPDDTAVYYCNAVVWVYSISLSYTGTKYEYWGQGTQVTVSS” belongs “high polyreactivity”; to “QVQLVESGGGLVQAGGSLRLSCADSGFIFSLYAMGWYRQAPGKERELVAAISKRGGSTNYADSVKGRFTISRDYAKNTVYLQMNSLKPEDTAVYYCAKARPGFLYDHWVQGTQVTVSS”, “high polyreactivity”; to “QVQLVESGGGLVQAGGSLRLSCADSGFISGGNDMGWNRQAPGKEREFVAAIDNTGSTYYADSVKGRFTISRDNAKNTVYLQMNSLKPEDSAVYYCNAEVSEDYVDNDFWGQGTQVTVSS”, “low polyreactivity”. To “QVQLVESGGGLVQAGGSLRLSCADSGFTFDYYTMGWYRQAPGKDRELVAAITYSGGITYYADSVKGRFTISRDNAKNTVYLQMNSLKPEDTAVYYCNARYSPRTGRGRHVTYYYWGQGTQVTVSS” belongs “high polyreactivity”. With “QVQLVESGGGLVQAGGSLRLSCADSGFTFISNAKGWYRQAPGKERELVAAISSSGGRTYYADSVKGRFTISRDNAKNTVYLQMNSLKPEDTAVYYCNADRSLLYSRKIEYDYWGQGTQVTVSS”, the “polyreactivity (PSR sort gate)” value is given as “low polyreactivity”. In the case of “QVQLVESGGGLVQAGGSLRLSCADSGFTFYLYAMGWYRQAPGKERALVAAITGSGGSKYYADSVKGRFTISRYNAKNTVYLQMNSLKPEDTAVYYCAAVFKDSRYQYGFGYDYWGQGTQVTVSS”, the “polyreactivity (PSR sort gate)” value was “high polyreactivity”. “QVQLVESGGGLVQAGGSLRLSCADSGGTFKLYAMGWYSQAPAKESELVAAISRRGGSTYYADSVKGRFTISRDNAKNTVYLQMNSLKPDDTAVYYCAAPGPTQSTQRGGYWGQGTQVTVSS”: the “polyreactivity (PSR sort gate)” value is on record as “high polyreactivity”. The same measure for “QVQLVESGGGLVQAGGSLRLSCADSGIIFLEYAMGWYRQAPGKERELVAAISSDDGSSTYYADSVKGRFTISRDNAKNTVYLQMNSLKPEDTAVYYCAAYGGGGYYYDYEYWGQGTQVTVSS”: “high polyreactivity”; for “QVQLVESGGGLVQAGGSLRLSCADSGIIFRYYAMGWYRQAPGKERELVADISRRGGSTYYADSVKGRFTISRDNAKNTVYLQMNSLKPEDTAVYYCAAKYRVYNYSPWGPYNYWGQVTQVTVSS”: “high polyreactivity”; for “QVQLVESGGGLVQAGGSLRLSCADSGIIFYYNAMGWYRQAPGKEREFVAAIDDRGDSTYYADSVKGRFTISRDNAKNTVYLQMNSLKPEDTAVYYCAARDGYLYFDAMDYWGQGTLVTVSS”: “low polyreactivity”.

For the sequence “QVQLVESGGGLVQAGGSLRLSCADSGITFYIYAMGWYRQAPGKERELVATISWSDGRTYYADSVKGRFTISRDNAKNTVYLQMNRLKPEDTAVYYCAADWWYYQFDYEYWGQGTQVTVSS”, the “polyreactivity (PSR sort gate)” value is on record as “low polyreactivity”. To “QVQLVESGGGLVQAGGSLRLSCADSGITLVYDGMGWDIQAPGKERELVAAISWTGGSTFYADSVKGLFTISLDNAKKTVYLQMNSLKPEDTAVYYCAADRGYFYSRIQVDSDYWGQGTQVTVSS” belongs “low polyreactivity”; to “QVQLVESGGGLVQAGGSLRLSCADSGLIFYYYAMGWYRHAPGKERELVAAISYNGGTTYYADSVKGRFTISRDNAKNTVYLQMNSLNPEDTAVYYCAAEQLVSGYDYWGQGTQVTVSS”, “low polyreactivity”; to “QVQLVESGGGLVQAGGSLRLSCADSGNIFGTYAMGWSRQAPGKERELVANISNDDRTNYADSVKGRFTISRDNAKNTVYLQMNSLKPEDTAVYYCAVEYPSIAYRKSSKTFDYWGQGTQVTVSS”, “low polyreactivity”. On to “QVQLVESGGGLVQAGGSLRLSCADSGNIFYKNTMGWYRQAPGKERELVAAISVSGGGTYYADSVKGRFTISRDNAKNTVYLQMNSLKPEDTAVYYCAATWRQHPGSMGYWGLGTQVTVSS”, for which the “polyreactivity (PSR sort gate)” value is given as “high polyreactivity”. Regarding “QVQLVESGGGLVQAGGSLRLSCADSGRIFGLNAMGWYRQAPGKEREFVAAIRWRGGSTYYADSVKGRFTISRDNAKNTVYLQMNSLKPEDTAVYYCAADRNLGVSRYGYWGQGTQVTVSS”, the “polyreactivity (PSR sort gate)” value is “high polyreactivity”. To “QVQLVESGGGLVQAGGSLRLSCADSGRIFNGYGMGWYRQAPGKERELVATISSSGDSTYYADSVKGRFTISRDNAKNTVYLQMNSLKPEDTAVYYCAKRARYKFGYWGQGTQVTVSS” belongs “high polyreactivity”; to “QVQLVESGGGLVQAGGSLRLSCADSGRIFVHHDMGRYRQAPGKVRELVATITSGGSTYYADSVKGRFTISRDNAKNTVYLQMNSLKPEDTAVYYCAADSWDYDSRMDYWGQGTQVTVSS”, “low polyreactivity”; to “QVQLVESGGGLVQAGGSLRLSCADSGRNYIGNAMGWYIHAPGKEPELVAAISSSGGNTYYADSVKGRFTISRDNAKNTVYLQMTSLNPEDNAVYYCAVEVRTLVTYGRSEYYWGQGTKVTVSS”, “high polyreactivity”. Turning to “QVQLVESGGGLVQAGGSLRLSCADSGRTFCKYVMRWYRQAPGKERELVAVISRPAGSTYYADSVKGRFTISRDNAKNTVYLQMNSLKPEDTAVYYCAKRPKNKPVLGDYDHWGQGTQVTVSS”, the “polyreactivity (PSR sort gate)” value was “low polyreactivity”.
